Read-outs that look alike come from different tables or passages of the source. Where no end group is shown, it is not given here. Side-chain parts run from the residue outwards. [ ]: non-standard residue; d: D form. The star is where a group is joined. BODIPY(FL) = CC1=CC(C)=[N+]2C1=Cc1ccc(CCC(=O)*)n1[B-]2(F)F; NMeK = CN[C@@H](CCCCN)C(=O)O; Ahx = NCCCCCC(=O)O; BDPFL = dye
What was measured:
Assay in all cases: competition
integrin αvβ5 [1] = molecular target: T1, integrin αvβ5 (human, UniProt P06756)
T1 chain 1: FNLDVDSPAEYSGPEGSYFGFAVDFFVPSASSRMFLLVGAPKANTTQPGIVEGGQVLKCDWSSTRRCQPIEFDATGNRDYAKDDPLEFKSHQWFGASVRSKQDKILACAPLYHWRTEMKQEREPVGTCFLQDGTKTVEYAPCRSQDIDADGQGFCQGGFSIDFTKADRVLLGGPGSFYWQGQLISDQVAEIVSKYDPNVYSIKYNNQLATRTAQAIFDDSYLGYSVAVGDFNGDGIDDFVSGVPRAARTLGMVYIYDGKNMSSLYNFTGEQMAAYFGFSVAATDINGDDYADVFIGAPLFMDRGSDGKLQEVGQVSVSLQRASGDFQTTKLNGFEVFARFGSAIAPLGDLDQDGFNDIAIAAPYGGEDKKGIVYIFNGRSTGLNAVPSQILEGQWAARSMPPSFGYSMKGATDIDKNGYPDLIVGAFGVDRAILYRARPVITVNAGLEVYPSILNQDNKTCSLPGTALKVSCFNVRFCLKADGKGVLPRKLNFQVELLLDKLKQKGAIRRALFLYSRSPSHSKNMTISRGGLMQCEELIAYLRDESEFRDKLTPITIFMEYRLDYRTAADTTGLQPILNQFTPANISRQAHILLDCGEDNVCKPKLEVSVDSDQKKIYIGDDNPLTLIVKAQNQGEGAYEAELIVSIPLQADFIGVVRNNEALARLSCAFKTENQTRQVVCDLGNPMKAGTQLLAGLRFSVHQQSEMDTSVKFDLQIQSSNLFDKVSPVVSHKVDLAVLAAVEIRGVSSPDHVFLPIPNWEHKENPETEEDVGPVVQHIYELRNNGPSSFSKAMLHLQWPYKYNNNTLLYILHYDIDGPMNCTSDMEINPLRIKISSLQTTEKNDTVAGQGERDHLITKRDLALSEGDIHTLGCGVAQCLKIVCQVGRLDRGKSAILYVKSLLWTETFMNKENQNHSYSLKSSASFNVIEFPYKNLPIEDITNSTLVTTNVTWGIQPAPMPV
T1 chain 2: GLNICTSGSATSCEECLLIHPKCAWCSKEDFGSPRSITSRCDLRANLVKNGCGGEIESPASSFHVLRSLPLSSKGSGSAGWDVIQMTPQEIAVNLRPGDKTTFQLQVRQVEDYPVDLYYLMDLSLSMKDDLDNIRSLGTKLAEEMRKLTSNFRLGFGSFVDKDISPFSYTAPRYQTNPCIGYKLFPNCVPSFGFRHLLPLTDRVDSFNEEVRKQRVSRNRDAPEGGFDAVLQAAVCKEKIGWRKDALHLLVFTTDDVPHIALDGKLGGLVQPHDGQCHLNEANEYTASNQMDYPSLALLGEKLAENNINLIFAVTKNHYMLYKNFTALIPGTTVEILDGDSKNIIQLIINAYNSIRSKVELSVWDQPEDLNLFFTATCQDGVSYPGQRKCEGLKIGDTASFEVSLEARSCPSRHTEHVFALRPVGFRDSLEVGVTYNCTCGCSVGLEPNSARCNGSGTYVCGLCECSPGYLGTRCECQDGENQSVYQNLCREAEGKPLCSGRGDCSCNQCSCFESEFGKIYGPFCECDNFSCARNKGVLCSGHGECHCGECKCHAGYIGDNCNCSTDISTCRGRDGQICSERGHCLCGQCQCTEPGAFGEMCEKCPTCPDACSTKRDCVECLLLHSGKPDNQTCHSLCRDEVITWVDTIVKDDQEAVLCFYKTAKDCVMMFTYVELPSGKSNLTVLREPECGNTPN

integrin α5β1 [2] = molecular target: T2, integrin α5β1 (human, UniProt P08648)
T2 sequence (P08648 42-1049, chain 1 of 2): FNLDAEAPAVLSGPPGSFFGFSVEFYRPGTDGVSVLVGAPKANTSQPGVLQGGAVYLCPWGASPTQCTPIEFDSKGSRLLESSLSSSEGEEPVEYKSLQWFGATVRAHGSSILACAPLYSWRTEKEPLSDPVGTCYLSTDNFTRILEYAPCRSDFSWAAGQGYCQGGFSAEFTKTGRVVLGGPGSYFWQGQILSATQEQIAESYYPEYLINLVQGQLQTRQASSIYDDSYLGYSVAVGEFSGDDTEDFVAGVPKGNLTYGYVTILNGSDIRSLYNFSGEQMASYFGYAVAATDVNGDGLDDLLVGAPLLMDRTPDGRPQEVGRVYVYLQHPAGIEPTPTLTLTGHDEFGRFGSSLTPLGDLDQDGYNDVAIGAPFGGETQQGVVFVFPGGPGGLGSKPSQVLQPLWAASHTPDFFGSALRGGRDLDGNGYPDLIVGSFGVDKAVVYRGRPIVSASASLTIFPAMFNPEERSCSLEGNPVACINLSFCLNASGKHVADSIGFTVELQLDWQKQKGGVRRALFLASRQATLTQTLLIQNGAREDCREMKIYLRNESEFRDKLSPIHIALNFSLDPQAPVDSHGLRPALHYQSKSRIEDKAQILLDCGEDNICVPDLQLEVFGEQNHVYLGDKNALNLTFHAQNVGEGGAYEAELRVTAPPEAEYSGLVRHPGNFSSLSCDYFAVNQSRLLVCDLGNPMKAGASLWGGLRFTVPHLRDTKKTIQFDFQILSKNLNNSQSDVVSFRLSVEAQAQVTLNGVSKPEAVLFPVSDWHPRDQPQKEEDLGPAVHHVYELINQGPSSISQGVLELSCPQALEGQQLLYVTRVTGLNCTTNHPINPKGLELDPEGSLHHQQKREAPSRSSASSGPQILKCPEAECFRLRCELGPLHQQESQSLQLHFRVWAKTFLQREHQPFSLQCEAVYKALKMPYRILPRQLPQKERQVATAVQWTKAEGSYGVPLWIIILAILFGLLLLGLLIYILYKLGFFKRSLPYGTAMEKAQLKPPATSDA
T2 sequence (chain, as listed by the source, chain 2 of 2): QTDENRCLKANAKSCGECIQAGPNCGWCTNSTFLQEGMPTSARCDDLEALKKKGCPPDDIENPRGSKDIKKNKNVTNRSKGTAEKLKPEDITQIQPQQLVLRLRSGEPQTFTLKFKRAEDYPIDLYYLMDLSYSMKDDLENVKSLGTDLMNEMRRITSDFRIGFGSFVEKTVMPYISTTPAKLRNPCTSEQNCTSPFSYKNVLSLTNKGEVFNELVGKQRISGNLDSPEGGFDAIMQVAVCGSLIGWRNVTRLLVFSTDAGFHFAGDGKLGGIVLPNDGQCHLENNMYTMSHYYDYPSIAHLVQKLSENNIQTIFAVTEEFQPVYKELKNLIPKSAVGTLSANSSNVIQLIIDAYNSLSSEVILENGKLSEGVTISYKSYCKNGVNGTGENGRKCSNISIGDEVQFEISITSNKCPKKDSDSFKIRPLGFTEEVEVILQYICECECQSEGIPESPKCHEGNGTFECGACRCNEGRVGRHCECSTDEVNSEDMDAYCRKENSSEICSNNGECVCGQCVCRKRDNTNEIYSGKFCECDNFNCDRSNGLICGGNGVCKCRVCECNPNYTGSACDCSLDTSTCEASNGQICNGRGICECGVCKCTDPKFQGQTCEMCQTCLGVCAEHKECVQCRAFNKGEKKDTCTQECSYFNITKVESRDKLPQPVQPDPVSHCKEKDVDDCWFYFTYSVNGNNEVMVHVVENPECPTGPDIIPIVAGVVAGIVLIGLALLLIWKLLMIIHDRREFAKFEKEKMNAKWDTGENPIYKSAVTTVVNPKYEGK

integrin αvβ8 [3] = molecular target: T3, integrin αvβ8 (human, UniProt P06756)
T3 chain 1: T1 chain 1
T3 chain 2: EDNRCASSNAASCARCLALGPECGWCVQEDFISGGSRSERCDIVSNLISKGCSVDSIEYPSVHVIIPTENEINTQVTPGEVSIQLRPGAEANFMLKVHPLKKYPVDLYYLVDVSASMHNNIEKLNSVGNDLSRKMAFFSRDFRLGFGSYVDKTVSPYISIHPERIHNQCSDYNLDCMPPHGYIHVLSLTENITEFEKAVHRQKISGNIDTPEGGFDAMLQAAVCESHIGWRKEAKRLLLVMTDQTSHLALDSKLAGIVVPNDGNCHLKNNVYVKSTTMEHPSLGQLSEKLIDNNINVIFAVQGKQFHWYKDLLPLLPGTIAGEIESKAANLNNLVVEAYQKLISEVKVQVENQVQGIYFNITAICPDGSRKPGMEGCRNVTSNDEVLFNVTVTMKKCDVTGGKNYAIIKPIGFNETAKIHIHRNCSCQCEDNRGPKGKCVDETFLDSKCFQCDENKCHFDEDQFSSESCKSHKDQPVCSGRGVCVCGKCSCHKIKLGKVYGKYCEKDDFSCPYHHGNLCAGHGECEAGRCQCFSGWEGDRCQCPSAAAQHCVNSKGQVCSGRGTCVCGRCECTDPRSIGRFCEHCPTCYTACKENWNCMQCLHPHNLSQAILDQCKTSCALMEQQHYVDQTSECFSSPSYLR

integrin αIIbβ3 [4] = molecular target: T4, integrin αIIbβ3 (human, UniProt P08514)
integrin αvβ6 [5] = molecular target: T5, integrin αvβ6 (human, UniProt P06756)
T5 chain 1: T1 chain 1
T5 chain 2: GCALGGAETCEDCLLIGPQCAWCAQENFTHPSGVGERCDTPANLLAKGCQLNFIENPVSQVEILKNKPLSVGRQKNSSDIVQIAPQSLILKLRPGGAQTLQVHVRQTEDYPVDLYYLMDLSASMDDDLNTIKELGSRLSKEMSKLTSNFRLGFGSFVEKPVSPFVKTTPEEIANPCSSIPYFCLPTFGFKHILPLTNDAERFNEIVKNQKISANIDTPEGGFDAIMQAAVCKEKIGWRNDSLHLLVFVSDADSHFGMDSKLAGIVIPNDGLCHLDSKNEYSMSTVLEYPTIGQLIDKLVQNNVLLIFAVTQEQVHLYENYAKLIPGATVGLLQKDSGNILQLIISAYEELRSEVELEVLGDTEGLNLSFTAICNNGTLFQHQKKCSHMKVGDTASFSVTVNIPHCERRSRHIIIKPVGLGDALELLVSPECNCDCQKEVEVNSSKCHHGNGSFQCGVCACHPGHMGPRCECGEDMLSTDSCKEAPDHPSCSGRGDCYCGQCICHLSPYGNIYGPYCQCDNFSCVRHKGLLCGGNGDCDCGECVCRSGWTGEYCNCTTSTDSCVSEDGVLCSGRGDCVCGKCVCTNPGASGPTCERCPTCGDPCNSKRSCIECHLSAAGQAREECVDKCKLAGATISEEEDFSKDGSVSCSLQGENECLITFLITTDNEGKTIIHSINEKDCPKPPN

integrin αvβ3 [6] = molecular target: T6, integrin αvβ3 (human, UniProt P06756)
T6 chain 1: T1 chain 1
T6 chain 2: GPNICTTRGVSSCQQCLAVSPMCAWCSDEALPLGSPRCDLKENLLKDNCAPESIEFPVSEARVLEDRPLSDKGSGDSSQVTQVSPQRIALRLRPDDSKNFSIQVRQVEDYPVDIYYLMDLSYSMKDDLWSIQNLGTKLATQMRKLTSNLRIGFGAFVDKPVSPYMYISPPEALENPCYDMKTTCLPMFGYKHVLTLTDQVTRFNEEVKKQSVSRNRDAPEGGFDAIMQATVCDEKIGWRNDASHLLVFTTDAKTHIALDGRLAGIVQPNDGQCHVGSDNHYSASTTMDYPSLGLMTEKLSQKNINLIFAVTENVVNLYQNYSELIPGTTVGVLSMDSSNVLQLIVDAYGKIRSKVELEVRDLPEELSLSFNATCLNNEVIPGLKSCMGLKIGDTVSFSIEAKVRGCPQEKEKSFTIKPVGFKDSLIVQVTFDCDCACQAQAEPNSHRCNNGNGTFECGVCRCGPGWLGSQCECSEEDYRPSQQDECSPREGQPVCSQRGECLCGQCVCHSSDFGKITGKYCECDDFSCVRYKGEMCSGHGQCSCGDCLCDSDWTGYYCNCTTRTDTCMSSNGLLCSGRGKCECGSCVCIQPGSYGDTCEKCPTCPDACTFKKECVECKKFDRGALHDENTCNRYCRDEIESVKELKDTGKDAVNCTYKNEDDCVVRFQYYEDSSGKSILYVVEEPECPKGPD

integrin αvβ8 [7] = molecular target: T3, integrin αvβ8
integrin αvβ6 [8] = molecular target: T5, integrin αvβ6
integrin αvβ5 [9] = molecular target: T1, integrin αvβ5
integrin α5β1 [10] = molecular target: T2, integrin α5β1; remark: listed apart in the source
integrin αvβ3 [11] = molecular target: T6, integrin αvβ3
integrin αIIbβ3 [12] = molecular target: T4, integrin αIIbβ3; remark: listed apart in the source

B1: Compound 8 (peptide)
chain: cyclo(RGDL[dP][NMeK]GL)
SMILES: CC(C)C[C@@H]1NC(=O)CNC(=O)[C@H](CCCCN)N(C)C(=O)[C@H]2CCCN2C(=O)[C@H](CC(C)C)NC(=O)[C@H](CC(=O)O)NC(=O)CNC(=O)[C@H](CCCNC(=N)N)NC1=O
IC50 (integrin αvβ5 [1]): > 1000 nM
IC50 (integrin α5β1 [2]): > 1000 nM
IC50 (integrin αvβ8 [3]): 6.5 nM
IC50 (integrin αIIbβ3 [4]): > 1000 nM
IC50 (integrin αvβ6 [5]): 201 nM
IC50 (integrin αvβ3 [6]): > 1000 nM

B2: Compound 2 (peptide)
chain: cyclo(RGDL[dP]PGL)
IC50 (integrin αvβ5 [1]): > 1000 nM
IC50 (integrin α5β1 [2]): > 1000 nM
IC50 (integrin αvβ8 [3]): 0.93 nM
IC50 (integrin αIIbβ3 [4]): > 1000 nM
IC50 (integrin αvβ6 [5]): 210 nM
IC50 (integrin αvβ3 [6]): > 1000 nM

B3: Compound 9e (9-G(P)3G-BDPFL) (peptide)
chain: RGDL[dP][NMeK]([Gly-Pro-Pro-Pro-Gly-BODIPY(FL)])GL
modifications: not fully specified (bridges); also: cyclic, closure not given here
IC50 (integrin αvβ8 [7]): 2.07 nM
IC50 (integrin αvβ6 [8]): 247 nM
IC50 (integrin αvβ5 [9]): > 10000 nM
IC50 (integrin α5β1 [10]): 979 nM
IC50 (integrin αvβ3 [11]): 585 nM

B4: Compound 9a (9-BDPFL) (peptide)
chain: cyclo(RGDL[dP][NMeK](BDPFL)GL)
IC50 (integrin αvβ8 [7]): 0.66 nM
IC50 (integrin αvβ6 [8]): 94 nM
IC50 (integrin αvβ5 [9]): > 10000 nM
IC50 (integrin α5β1 [10]): 1470 nM
IC50 (integrin αvβ3 [11]): 676 nM

B5: Compound 9f (9-G(P)6G-BDPFL) (peptide)
chain: cyclo(RGDL[dP][NMeK]([Gly-Pro-Pro-Pro-Pro-Pro-Pro-Gly-BDPFL])GL)
IC50 (integrin αvβ8 [7]): 7.98 nM
IC50 (integrin αvβ6 [8]): 453 nM
IC50 (integrin αvβ5 [9]): > 10000 nM
IC50 (integrin α5β1 [10]): 782 nM
IC50 (integrin αvβ3 [11]): 42 nM

B6: Compound 9 (peptide)
chain: cyclo(RGDL[dP][NMeK](Ac)GL)
IC50 (integrin αvβ5 [1]): > 1000 nM
IC50 (integrin α5β1 [2]): > 1000 nM
IC50 (integrin αvβ8 [3]): 6 nM
IC50 (integrin αIIbβ3 [4]): > 1000 nM
IC50 (integrin αvβ6 [5]): 201 nM
IC50 (integrin αvβ3 [6]): 423 nM

B7: Compound 9b (9-Ahx-BDPFL) (peptide)
chain: cyclo(RGDL[dP][NMeK]([Ahx-BDPFL])GL)
IC50 (integrin αIIbβ3 [12]): > 1000 nM
IC50 (integrin αvβ8 [7]): 0.87 nM
IC50 (integrin αvβ6 [8]): 55 nM
IC50 (integrin αvβ5 [9]): > 10000 nM
IC50 (integrin α5β1 [10]): > 1000 nM
IC50 (integrin αvβ3 [11]): 239 nM

B8: Compound 9d (9-(PEG)5-BDPFL) (peptide)
chain: RGDL[dP][NMeK]([(PEG)5-BODIPY(FL)])GL
modifications: not fully specified (bridges); also: cyclic, closure not given here
IC50 (integrin αvβ8 [7]): 1.25 nM
IC50 (integrin αvβ6 [8]): 247 nM
IC50 (integrin αvβ5 [9]): > 10000 nM
IC50 (integrin α5β1 [10]): 95 nM
IC50 (integrin αvβ3 [11]): 98 nM

B9: Compound 12 (Table 3) c(RGDfK) (peptide)
chain: cyclo(RGD[dF]K)
IC50 (integrin αIIbβ3 [12]): > 10000 nM
IC50 (integrin α5β1 [10]): 141 nM

Source: patent US20200087347 (published 2020)
